± gives the uncertainty stated by the source.
Experiment: amyloid nucleation score (Sup35N fusion, yeast selection) (log enrichment); library NNK2; higher = more nucleation; inactive = no reads after selection
Outline: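 Psi-negative yeast expressed Sup35N fused to peptides of 20 random codons. They were induced 24 hours with 100 μM copper sulfate, grown 7 days at 30°C without adenine and uracil, and their plasmid inserts from input and output were Illumina-sequenced. The nucleation score is the DiMSum log enrichment of output over input reads, centred on the mode score of non-aggregating sequences. Sequences with under 100 input reads were excluded.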

| Substance | amyloid nucleation score |
| --- | --- |
| AAFRSTFDCTTVVLRSPSVS | -0.345 ± 0.33 |
| AAFVAYLAYFLMFSSCFCIY | inactive |
| AAGRDVARAFGSLVQKLGVG | 4.88 ± 0.097 |
| AAIMMN | -0.231 ± 0.62 |
| AALELSRNKFSVRIICVLLW | -0.238 ± 1.1 |
| AALFDLRWTHHKYFPNVKSG | 0.057 ± 1.1 |
| AARVIGWAFVDWFCLSKG | inactive |
| ACCFESSGIQLEVRGGGAWG | 1.58 ± 0.27 |
| ACFSSSLCFVGMERSRSHNF | 1.91 ± 0.13 |
| ACLFWIYARRHRLAWFVFIW | -0.37 ± 0.76 |
| ACLITNRV | -0.288 ± 0.54 |
| ACYIR | 1.02 ± 0.17 |
| ADDCLRTCSNKLKTQAGLW | 1.38 ± 0.35 |
| ADHELVVITDVGFRLGSTGD | -0.226 ± 0.37 |
| ADMIMRYKG | 0.879 ± 0.57 |
| ADQWGTRVWPGWEFVLEVAA | 1.33 ± 0.31 |
| AECNRHLLQAVSLY | -0.256 ± 0.29 |
| AEHYECPLCERIETAGCKLV | 0.509 ± 0.24 |
| AFATRCCSTLIDPSFVIGTG | 0.692 ± 0.41 |
| AFCKGYIARMRSINAGVGAG | -0.144 ± 0.36 |
| AFDLLDD | 0.904 ± 0.33 |

| Substance | amyloid nucleation score |
| --- | --- |
| AFEFIPSKPRW | 0.667 ± 0.66 |
| AFLRLRWNSNPVISGTRNRR | 0.777 ± 0.48 |
| AFMCWSYRS | 6.393 ± 0.043 |
| AFMSYTSSSRYPVCYLSKFH | -0.74 ± 1.1 |
| AFNDIYIMKMHIFGKSIVLL | inactive |
| AFVSYLCCGMYRVANSKSEG | 9.903 ± 0.058 |
| AFYIRLIAREP | inactive |
| AGFYHPSNFGCLGSGLLRTM | inactive |
| AGKFYAGRHNSD | inactive |
| AGKSTHLFLRAVVLLCGNPR | 0.05 ± 0.35 |
| AGLIRCLLRGTCNRNFFSLY | inactive |
| AGMPCKFIRARSSPYFRALC | 0.495 ± 0.62 |
| AGSNDEKNRWVTSL | -0.22 ± 1 |
| AGSQVVVMVIGVSTWAVVDG | 3.01 ± 0.14 |
| AHEYEPNFFRLCYKVRLWNA | -0.244 ± 0.22 |
| AHKKRDMWLRKPGL | 1.68 ± 0.53 |
| AILKWSLICMMGRDWYSQWF | 6.317 ± 0.037 |
| AILRRVKIQLPRIPPEYCGW | 0.884 ± 0.49 |
| AILSEGETGFVSDYRQVSEP | -0.004 ± 0.34 |
| AIMYFVTCMKILMFVGNYVQ | -0.118 ± 0.27 |
| AINAKRHTWLFNLHSTFLCF | 2.8 ± 0.14 |

| Substance | amyloid nucleation score |
| --- | --- |
| AIRRPDRSQFLAYLVSSCKF | -0.218 ± 0.45 |
| AIVYDH | -0.291 ± 0.63 |
| AIWYFFIRNYYPSLLQKRSL | 1.89 ± 0.12 |
| AKNVKKT | -0.575 ± 0.32 |
| ALAYAWYLVGLLFSKVWRYS | 0.095 ± 0.42 |
| ALCIAGTLLYMANLISTLHG | 0.439 ± 0.36 |
| ALEVLTTLRISLPSHKGSSF | 5.533 ± 0.051 |
| ALLFYGKMY | 5.966 ± 0.052 |
| ALMDCACFVYSRD | -0.199 ± 1.1 |
| ALNGFVYALLAGPGQRLIKP | 1.36 ± 0.53 |
| ALNLIV | -0.572 ± 0.32 |
| ALNPVCL | 0.623 ± 0.62 |
| ALQDMTI | -0.176 ± 0.36 |
| ALVAWVVSYYLALLCSPRQS | -0.1 ± 0.74 |
| ALWTSC | 2.35 ± 0.078 |
| AMDMI | 0.833 ± 0.8 |
| AMFVLVGFEFY | 1.47 ± 0.11 |
| AMGNKREKVL | 0.601 ± 0.44 |
| AMGVC | -0.061 ± 0.41 |
| AMSPGTVKRFGLLVALFQY | 0.867 ± 0.74 |
| AMSSA | 0.906 ± 0.52 |

| Substance | amyloid nucleation score |
| --- | --- |
| AMYICLRVIGSSGRSVMASK | 0.782 ± 0.16 |
| ANKTSPICSCVFNEL | 6.3 ± 0.088 |
| ANKTVFVLEMVGVRGFYLMP | 2.66 ± 0.098 |
| ANLSRCVELMSRPQSVD | 1 ± 0.15 |
| ANVGYFVGW | 0.873 ± 0.31 |
| APRGLTFVQQSVSSIHLTAK | 0.345 ± 0.39 |
| APRRVSERFGSIVWVRRNS | -0.547 ± 0.55 |
| APSHPSTVFLYICLLFENKP | -0.128 ± 0.55 |
| APVLSDN | -0.07 ± 0.49 |
| AQLRKMSSVNYV | -0.825 ± 1.1 |
| AQTSWNILFAKS | -0.501 ± 0.64 |
| ARCCFVPEEYSVV | 1.22 ± 0.25 |
| ARCMGFLSGGIHYRYLTAQM | inactive |
| ARFFLHFG | 6.2 ± 0.074 |
| ARKISV | inactive |
| ARMRKFTCRDWFRDPMGQPA | 0.854 ± 0.25 |
| ARNSVKHSFFQVRRLHGSWD | 0.367 ± 0.38 |
| ARRVQRKSIPTFVSSAMMSD | -0.25 ± 0.36 |
| ARTWGAAIWFMGN | 4.09 ± 0.093 |
| ARVIFAVSVLEFRVGYSQGA | 3.87 ± 0.086 |
